Measured values published in US20240400614A1, “CLEAVABLE PEPTIDES AND METHODS OF USE THEREOF” (Bright Peak Therapeutics AG, priority 2023, published 2024).
Values belong to the substance of their own block, whether it stands above or below them. Square brackets hold non-standard residues; d marks the D form. Ends that are not written are not given here. Tyr(3-NO2) = N[C@@H](Cc1ccc(O)c([N+](=O)[O-])c1)C(=O)O; Nle = CCCC[C@H](N)C(=O)O; 2Abz = Nc1ccccc1C(=O)O

Assays:
Type in all cases: biochemical
[1] = target: T1, MMP-7 (Homo sapiens, UniProt P09237); assay: FRET peptide cleavage efficiency with MMP-7 (standard pH 7.5; also pH 6.5)
T1 construct: purchased SIGMA CC1059
T1 sequence (P09237 95-267): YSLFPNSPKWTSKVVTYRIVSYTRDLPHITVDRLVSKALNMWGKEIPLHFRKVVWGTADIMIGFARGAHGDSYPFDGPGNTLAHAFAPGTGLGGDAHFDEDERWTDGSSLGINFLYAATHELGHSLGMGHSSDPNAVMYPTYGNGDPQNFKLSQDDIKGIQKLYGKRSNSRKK

[2] = target: T2, matriptase (Homo sapiens, UniProt Q9Y5Y6); assay: FRET peptide cleavage efficiency with matriptase
T2 construct: purchased R&D Systems 3946-SEB
T2 sequence (Q9Y5Y6 615-855 limits assumed): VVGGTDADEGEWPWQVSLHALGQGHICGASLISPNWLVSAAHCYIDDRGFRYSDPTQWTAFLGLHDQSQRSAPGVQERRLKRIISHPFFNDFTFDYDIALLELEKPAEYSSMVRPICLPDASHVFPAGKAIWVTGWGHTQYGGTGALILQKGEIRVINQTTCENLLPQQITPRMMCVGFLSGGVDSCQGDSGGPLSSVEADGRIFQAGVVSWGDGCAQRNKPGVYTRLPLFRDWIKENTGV

[3] = target: uPA (Homo sapiens, UniProt P00749); assay: FRET peptide cleavage efficiency with uPA
[4] = target: T3, MMP-2 (Homo sapiens, UniProt P08253); assay: FRET peptide cleavage efficiency with MMP-2
T3 construct: purchased SIGMA PF023
T3 sequence (P08253 110-660): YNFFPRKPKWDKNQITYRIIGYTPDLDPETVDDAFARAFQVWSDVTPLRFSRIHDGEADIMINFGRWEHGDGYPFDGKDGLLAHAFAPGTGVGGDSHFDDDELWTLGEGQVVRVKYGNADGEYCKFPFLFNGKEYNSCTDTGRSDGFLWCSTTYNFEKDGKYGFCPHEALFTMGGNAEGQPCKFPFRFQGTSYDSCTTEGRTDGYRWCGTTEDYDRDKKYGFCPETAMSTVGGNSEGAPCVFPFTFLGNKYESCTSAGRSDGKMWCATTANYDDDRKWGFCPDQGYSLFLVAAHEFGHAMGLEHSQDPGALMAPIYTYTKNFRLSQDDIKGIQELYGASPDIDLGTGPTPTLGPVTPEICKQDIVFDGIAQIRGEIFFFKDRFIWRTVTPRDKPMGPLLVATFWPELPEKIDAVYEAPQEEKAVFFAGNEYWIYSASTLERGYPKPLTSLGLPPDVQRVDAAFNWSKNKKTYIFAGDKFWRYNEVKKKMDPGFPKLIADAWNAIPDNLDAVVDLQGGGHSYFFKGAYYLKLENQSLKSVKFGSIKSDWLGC

[5] = target: T4, MMP-9 (Homo sapiens, UniProt P14780); assay: FRET peptide cleavage efficiency with MMP-9 (standard pH 7.5; also pH 6.5)
T4 construct: purchased SIGMA PF024

[6] = t = 15 min, standard conditions (Table 8)
[7] = t = 60 min, standard conditions (Table 8)
[8] = t = 120 min, standard conditions (Table 8)

T4 sequence (P14780 94-707): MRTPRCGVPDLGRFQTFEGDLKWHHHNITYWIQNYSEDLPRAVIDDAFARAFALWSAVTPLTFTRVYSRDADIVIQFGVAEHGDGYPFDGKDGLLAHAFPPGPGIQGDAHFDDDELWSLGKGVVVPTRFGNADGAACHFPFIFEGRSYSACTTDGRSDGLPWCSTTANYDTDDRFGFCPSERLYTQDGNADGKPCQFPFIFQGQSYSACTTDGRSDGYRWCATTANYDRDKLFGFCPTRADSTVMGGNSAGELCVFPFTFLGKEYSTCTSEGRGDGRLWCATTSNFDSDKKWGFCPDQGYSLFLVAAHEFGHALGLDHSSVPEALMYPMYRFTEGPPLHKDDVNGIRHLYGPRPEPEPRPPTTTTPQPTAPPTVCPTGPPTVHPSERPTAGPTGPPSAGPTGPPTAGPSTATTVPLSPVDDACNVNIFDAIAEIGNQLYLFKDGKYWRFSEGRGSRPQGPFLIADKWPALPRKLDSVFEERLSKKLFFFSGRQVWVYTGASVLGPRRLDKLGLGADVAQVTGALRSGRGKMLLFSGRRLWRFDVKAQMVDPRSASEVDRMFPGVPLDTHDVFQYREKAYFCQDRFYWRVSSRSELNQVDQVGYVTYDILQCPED

% cleavage MMP-7 t = 15 min ([1]; t = 15 min (Table 9)): 20%
% cleavage MMP-7 t = 15 min [1, 6]: 20%
% cleavage MMP-7 t = 60 min ([1]; t = 60 min (Table 9)): 65%
% cleavage MMP-7 t = 60 min [1, 7]: 65%
% cleavage MMP-7 t = 120 min ([1]; t = 120 min (Table 9)): 88%
% cleavage MMP-7 t = 120 min [1, 8]: 88%
% cleavage Matriptase t = 15 min [2, 6]: 4%
% cleavage Matriptase t = 60 min [2, 7]: 17%
% cleavage Matriptase t = 120 min ([2]; standard conditions (Table 8)): 33%
% vcleavage uPA t = 15 min [3, 6]: 1%
% cleavage uPA t = 60 min [3, 7]: 1%
% cleavage uPA t = 120 min [3, 8]: 2%
% cleavage MMP-2 t = 15 min ([4]; t = 15 min (Table 9)): 2%
% cleavage MMP-2 t = 60 min ([4]; t = 60 min (Table 9)): 5%
% cleavage MMP-2 t = 60 min [4, 7]: 5%
% cleavage MMP-2 t = 120 min ([4]; t = 120 min (Table 9)): 9%
% cleavage MMP-2 t = 120 min [4, 8]: 9%
% cleavage MMP-9 t = 15 min ([5]; t = 15 min (Table 9)): 1%
% cleavage MMP-9 t = 15 min [5, 6]: 1%
% cleavage MMP-9 t = 60 min ([5]; t = 60 min (Table 9)): 2%
% cleavage MMP-9 t = 60 min [5, 7]: 2%
% cleavage MMP-9 t = 120 min ([5]; t = 120 min (Table 9)): 4%
% cleavage MMP-9 t = 120 min [5, 8]: 4%
Substance: SGRVQPLVD (not fully specified (N-terminus, C-terminus)) [LNK047]

% cleavage MMP-7 t = 15 min ([1]; t = 15 min (Table 9)): 0%
% cleavage MMP-7 t = 15 min [1, 6]: 0%
% cleavage MMP-7 t = 60 min ([1]; t = 60 min (Table 9)): 0%
% cleavage MMP-7 t = 60 min [1, 7]: 0%
% cleavage MMP-7 t = 120 min ([1]; t = 120 min (Table 9)): 0%
% cleavage MMP-7 t = 120 min [1, 8]: 0%
% cleavage Matriptase t = 15 min [2, 6]: 0%
% cleavage Matriptase t = 60 min [2, 7]: 0%
% cleavage Matriptase t = 120 min ([2]; standard conditions (Table 8)): 0%
% vcleavage uPA t = 15 min [3, 6]: 0%
% cleavage uPA t = 60 min [3, 7]: 0%
% cleavage uPA t = 120 min [3, 8]: 0%
% cleavage MMP-2 t = 15 min ([4]; t = 15 min (Table 9)): 0%
% cleavage MMP-2 t = 60 min ([4]; t = 60 min (Table 9)): 0%
% cleavage MMP-2 t = 60 min [4, 7]: 0%
% cleavage MMP-2 t = 120 min ([4]; t = 120 min (Table 9)): 0%
% cleavage MMP-2 t = 120 min [4, 8]: 0%
% cleavage MMP-9 t = 15 min ([5]; t = 15 min (Table 9)): 0%
% cleavage MMP-9 t = 15 min [5, 6]: 0%
% cleavage MMP-9 t = 60 min ([5]; t = 60 min (Table 9)): 0%
% cleavage MMP-9 t = 60 min [5, 7]: 0%
% cleavage MMP-9 t = 120 min ([5]; t = 120 min (Table 9)): 0%
% cleavage MMP-9 t = 120 min [5, 8]: 0%
Substance: SGRVY-Nle-LQG ([2Abz]SGRVY[Nle]LQG[Tyr(3-NO2)]-NH2) [LNK045]

% cleavage MMP-7 t = 15 min ([1]; t = 15 min (Table 9)): 1%
% cleavage MMP-7 t = 15 min [1, 6]: 1%
% cleavage MMP-7 t = 60 min ([1]; t = 60 min (Table 9)): 4%
% cleavage MMP-7 t = 60 min [1, 7]: 4%
% cleavage MMP-7 t = 120 min ([1]; t = 120 min (Table 9)): 9%
% cleavage MMP-7 t = 120 min [1, 8]: 9%
% cleavage Matriptase t = 15 min [2, 6]: 0%
% cleavage Matriptase t = 60 min [2, 7]: 0%
% cleavage Matriptase t = 120 min ([2]; standard conditions (Table 8)): 0%
% vcleavage uPA t = 15 min [3, 6]: 0%
% cleavage uPA t = 60 min [3, 7]: 0%
% cleavage uPA t = 120 min [3, 8]: 0%
% cleavage MMP-2 t = 15 min ([4]; t = 15 min (Table 9)): 0%
% cleavage MMP-2 t = 60 min ([4]; t = 60 min (Table 9)): 0%
% cleavage MMP-2 t = 60 min [4, 7]: 0%
% cleavage MMP-2 t = 120 min ([4]; t = 120 min (Table 9)): 1%
% cleavage MMP-2 t = 120 min [4, 8]: 1%
% cleavage MMP-9 t = 15 min ([5]; t = 15 min (Table 9)): 0%
% cleavage MMP-9 t = 15 min [5, 6]: 0%
% cleavage MMP-9 t = 60 min ([5]; t = 60 min (Table 9)): 1%
% cleavage MMP-9 t = 60 min [5, 7]: 1%
% cleavage MMP-9 t = 120 min ([5]; t = 120 min (Table 9)): 2%
% cleavage MMP-9 t = 120 min [5, 8]: 2%
Substance: SGRVYMLQG ([2Abz]SGRVYMLQG[Tyr(3-NO2)]-NH2) [LNK044]

% cleavage MMP-7 t = 15 min ([1]; t = 15 min (Table 9)): 40%
% cleavage MMP-7 t = 60 min ([1]; t = 60 min (Table 9)): 0%
% cleavage MMP-7 t = 120 min ([1]; t = 120 min (Table 9)): 100%
% cleavage Matriptase t = 15 min ([2]; pH 6.5, t = 15 min (Table 7)): 0%
% cleavage Matriptase t = 60 min ([2]; pH 6.5, t = 60 min (Table 7)): 0%
% cleavage Matriptase t = 15 min ([2]; pH 7.5, t = 15 min (Table 7)): 0%
% cleavage Matriptase t = 60 min ([2]; pH 7.5, t = 60 min (Table 7)): 0%
% cleavage Matriptase t = 15 min ([2]; t = 15 min, 200 uM linker, 1 ug/ml protease, 37° C., buffer B pH 9.0): 8%
% cleavage Matriptase t = 60 min ([2]; t = 60 min, 200 uM linker, 1 ug/ml protease, 37° C., buffer B pH 9.0): 9%
% cleavage Matriptase t = 120 min ([2]; 200 uM linker, 1 ug/ml protease, 37° C., buffer B pH 9.0): 11%
% cleavage uPA t = 60 min ([3]; pH 6.5, t = 60 min (Table 7)): 0%
% cleavage uPA t = 120 min ([3]; pH 6.5, t = 120 min (Table 7)): 0%
% cleavage uPA t = 60 min ([3]; pH 7.5, t = 60 min (Table 7)): 0%
% cleavage uPA t = 120 min ([3]; pH 7.5, t = 120 min (Table 7)): 0%
% cleavage uPA t = 15 min ([3]; t = 15 min, 200 uM linker, 1 ug/ml protease, 37° C., buffer A pH 8.5): 0%
% cleavage uPA t = 60 min ([3]; t = 60 min, 200 uM linker, 1 ug/ml protease, 37° C., buffer A pH 8.5): 1%
% cleavage uPA t = 120 min ([3]; t = 120 min, 200 uM linker, 1 ug/ml protease, 37° C., buffer A pH 8.5): 3%
% cleavage MMP-2 t = 15 min ([4]; pH 6.5, t = 15 min (Table 7)): 32%
% cleavage MMP-2 t = 60 min ([4]; pH 6.5, t = 60 min (Table 7)): 74%
% cleavage MMP-2 t = 15 min ([4]; pH 7.5, t = 15 min (Table 7)): 36%
% cleavage MMP-2 t = 60 min ([4]; pH 7.5, t = 60 min (Table 7)): 84%
% cleavage MMP-2 t = 15 min ([4]; t = 15 min (Table 9)): 27%
% cleavage MMP-2 t = 15 min ([4]; t = 15 min, 200 uM linker, 1 ug/ml protease, 37° C., buffer C pH 7.5): 31%
% cleavage MMP-2 t = 60 min ([4]; t = 60 min (Table 9)): 79%
% cleavage MMP-2 t = 60 min ([4]; t = 60 min, 200 uM linker, 1 ug/ml protease, 37° C., buffer C pH 7.5): 81%
% cleavage MMP-2 t = 120 min ([4]; t = 120 min (Table 9)): 94%
% cleavage MMP-2 t = 120 min ([4]; t = 120 min, 200 uM linker, 1 ug/ml protease, 37° C., buffer C pH 7.5): 96%
% cleavage MMP-9 t = 15 min ([5]; t = 15 min (Table 9)): 63%
% cleavage MMP-9 t = 60 min ([5]; t = 60 min (Table 9)): 99%
% cleavage MMP-9 t = 120 min ([5]; t = 120 min (Table 9)): 100%
Substance: SSRGPYMLQG ([2Abz]SSRGPYMLQG[Tyr(3-NO2)]-NH2) [LNK022]
